Data on three molecules can be found in patent US20210324050A1 (VANDERBILT UNIVERSITY, published 2021).

The target in experiment [1] is T1, GII.4 Houston 2002 (ABY27560.1) VLPs (human norovirus GII.4 Houston 2002, UniProt P54635 1-539).
T1 construct: also called GII.4 Houston 2002 antigen; GII.4 Houston VLPs
T1 chain: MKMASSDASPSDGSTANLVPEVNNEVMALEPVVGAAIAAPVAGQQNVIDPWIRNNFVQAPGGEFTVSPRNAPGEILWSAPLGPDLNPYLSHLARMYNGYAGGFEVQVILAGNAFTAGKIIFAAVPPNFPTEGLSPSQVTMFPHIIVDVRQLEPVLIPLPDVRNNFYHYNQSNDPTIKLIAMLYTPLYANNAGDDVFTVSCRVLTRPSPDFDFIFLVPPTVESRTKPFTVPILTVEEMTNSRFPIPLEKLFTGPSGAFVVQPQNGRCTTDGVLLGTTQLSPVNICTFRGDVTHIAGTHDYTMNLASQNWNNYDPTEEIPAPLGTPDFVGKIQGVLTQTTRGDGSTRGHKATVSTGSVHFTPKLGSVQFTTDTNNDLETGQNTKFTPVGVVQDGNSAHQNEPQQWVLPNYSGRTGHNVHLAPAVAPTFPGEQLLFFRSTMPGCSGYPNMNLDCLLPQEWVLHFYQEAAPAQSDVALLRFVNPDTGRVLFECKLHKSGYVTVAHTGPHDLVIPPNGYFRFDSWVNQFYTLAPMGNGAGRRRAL
In words: ELISA on GII.4 Houston 2002 VLPs against ELISA on GII.4 Sydney 2012 VLPs.

The next experiment deals with T2, GI.1 (M87661) VLPs (norovirus GI.1, UniProt Q83884 1-530; Q83885 1-212).
T2 sequence (VP1): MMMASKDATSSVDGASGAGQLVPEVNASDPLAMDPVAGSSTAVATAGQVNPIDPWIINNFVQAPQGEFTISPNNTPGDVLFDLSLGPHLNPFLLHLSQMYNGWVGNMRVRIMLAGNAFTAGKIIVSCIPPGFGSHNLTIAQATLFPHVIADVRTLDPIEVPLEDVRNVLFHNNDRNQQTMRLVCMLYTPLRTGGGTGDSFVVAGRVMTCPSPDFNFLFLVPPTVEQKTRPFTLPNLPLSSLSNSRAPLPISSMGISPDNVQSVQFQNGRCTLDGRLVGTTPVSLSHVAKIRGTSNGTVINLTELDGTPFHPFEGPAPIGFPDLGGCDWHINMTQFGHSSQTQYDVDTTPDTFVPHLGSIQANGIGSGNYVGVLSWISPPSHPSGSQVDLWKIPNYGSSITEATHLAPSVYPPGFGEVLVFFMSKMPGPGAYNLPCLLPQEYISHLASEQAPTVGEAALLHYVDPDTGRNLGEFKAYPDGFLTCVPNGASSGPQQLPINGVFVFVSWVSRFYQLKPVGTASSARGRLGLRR
T2 sequence (VP2): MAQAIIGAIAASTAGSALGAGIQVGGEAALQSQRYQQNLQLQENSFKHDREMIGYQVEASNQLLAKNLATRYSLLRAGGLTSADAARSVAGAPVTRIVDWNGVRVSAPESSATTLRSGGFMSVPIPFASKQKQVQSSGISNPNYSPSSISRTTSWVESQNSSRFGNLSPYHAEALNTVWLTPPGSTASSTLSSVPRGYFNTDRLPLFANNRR
The experiment can be described thus: indirect ELISA on VLPs.

In experiment [2] the target is T3, GII.4 Sydney 2012 shell (S) domain (human norovirus GII.4 Sydney 2012, UniProt P54635 1-221 (Lordsdale virus entry), limits assumed).
T3 construct: Recombinant S domain particles (pVL1392, baculovirus, Sf9); the whole VP1 entry is named; also called GII.4 S domain
T3 chain: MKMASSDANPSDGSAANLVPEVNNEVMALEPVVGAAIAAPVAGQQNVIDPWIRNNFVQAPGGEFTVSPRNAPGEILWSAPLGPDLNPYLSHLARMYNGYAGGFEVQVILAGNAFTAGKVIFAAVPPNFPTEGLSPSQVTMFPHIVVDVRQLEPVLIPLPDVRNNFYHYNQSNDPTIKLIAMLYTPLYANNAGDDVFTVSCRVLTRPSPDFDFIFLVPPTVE
In words: indirect ELISA on recombinant P and S domains. In general terms: ELISA stands for enzyme-linked immunosorbent assay.

In experiment [3] the target is T1, GII.4 Houston 2002 (ABY27560.1) VLPs. The experiment can be described thus: ELISA on GII.4 Houston 2002 VLPs.
Experiment [4] deals with T4, GII.4 Sydney 2012 virus-like particles (VLPs), based on strain AFV08795.1 (human norovirus GII.4 Sydney 2012, UniProt P54635 1-538).
T4 construct: also called GII.4 VLPs
T4 chain: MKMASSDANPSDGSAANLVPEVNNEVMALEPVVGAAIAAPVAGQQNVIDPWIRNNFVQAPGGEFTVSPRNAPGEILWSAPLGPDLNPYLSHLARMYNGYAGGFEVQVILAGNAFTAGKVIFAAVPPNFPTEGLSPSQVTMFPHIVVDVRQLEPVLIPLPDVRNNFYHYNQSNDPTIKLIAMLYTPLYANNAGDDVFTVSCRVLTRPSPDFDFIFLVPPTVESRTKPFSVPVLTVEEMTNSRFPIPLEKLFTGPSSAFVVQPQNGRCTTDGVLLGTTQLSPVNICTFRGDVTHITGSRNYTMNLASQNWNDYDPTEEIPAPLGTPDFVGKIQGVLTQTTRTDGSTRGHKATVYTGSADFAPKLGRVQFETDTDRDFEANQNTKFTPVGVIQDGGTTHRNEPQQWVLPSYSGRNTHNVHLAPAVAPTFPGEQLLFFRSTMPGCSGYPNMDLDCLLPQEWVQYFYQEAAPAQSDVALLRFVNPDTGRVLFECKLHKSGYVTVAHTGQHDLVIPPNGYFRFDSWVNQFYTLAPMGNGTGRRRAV
In words: indirect ELISA on coated GII.4 Sydney 2012 VLPs.

In general, EC50 refers to the concentration at which the effect is half-maximal. A high value points to a need for much substance.

B1: NORO-115 (antibody, V domains shown)
VH: QVQLVESGGGLVKPGGSLRLSCTASGITISGYYMSWIRQAPGKGLEWIVYINTSGRTIYYADSVKGRFSVSRDNAKESLYLQMDSLTVDDTGIYYCARDRLPASGSHWFHPWGQGTLVTVSS
VL: DIVMTQSPDSLAVSLGGRATINCKSSQSVLYTSDNKNYLAWYQQQPGQPPKLLISWASTRESGVPDRFSGSGSGTDFTLTISNLQAEDVAVYYCQQYYNSPLAFGGGTKVEIK
As to B1, the “fold higher binding EC50 compared to GII.4 Sydney 2012 VLPs” value in experiment [1] was greater than 10 fold.

B2: NORO-156.3 (antibody, V domains shown)
VH: QVQLQQWGAGLLKPSETLSLTCAVYGGSFSGYYWSWIRQPPGKGLEWIGEINHSGSTNYNPSLKSRVTISVDTSKNQFSLKLSSVTAADTAVYYCARGLMDVWGQGTLVTVSS
VL: AIRMTQSPSSFSASTGDRVTITCRASQGISSYLAWYQQKPGKAPKLLIYAASTLQSGVPSRFSGSGSGTDFTLTISCLQSEDFATYYCQQYYSYPRTFGQGTKLEIK
On to B2, for which the binding result with GI.1 (M87661) VLPs is “binds”; in experiment [2] it was “no binding (tested: 500 nM)”.

B3: NORO-202A.1 (antibody, V domains shown)
VH: QVQLVQSGAEVKKPGASVKVSCKASEYTFTGYYLQWVRQAPGHGLEWMGWINPSGGTKYSQKFQGRVTMTRDTSITTVYMELSRLRSDDTAVYYCARDLLRNWGDHDAFDVWGQGTMVTVSS
VL: QSVLTQPPSASETPGQGVTISCSGSSSNIGSNFVCWYQQVPGTAPKLLIYKNNQRPSGVPDRFSGSKSGTSASLAISGLRSEDEADYYCSAWDDSLSGPVFGGGTKLTVL
Take B3: the binding result in experiment [3] is “binds”; with GI.1 (M87661) VLPs, “no binding (tested: 500 nM)”. This molecule yielded an EC50 in experiment [4] of 0.4 µg/mL.
